Laboratory results reported in patent US20230087785A1, “Leucine-Rich Repeat Kinase 2 Allosteric Modulators” (VIB VZW, priority 2020, published 2023).

T1: LRRK2 RocCOR domain construct (human, UniProt Q5S007 1334-1840)
T1 construct: A second construct (residues 1293-1840, N-terminal His6-MBP) was used in certain screening experiments; not shown: N-terminal Twin-Strep-tag; C-terminal His10-tag
T1 sequence: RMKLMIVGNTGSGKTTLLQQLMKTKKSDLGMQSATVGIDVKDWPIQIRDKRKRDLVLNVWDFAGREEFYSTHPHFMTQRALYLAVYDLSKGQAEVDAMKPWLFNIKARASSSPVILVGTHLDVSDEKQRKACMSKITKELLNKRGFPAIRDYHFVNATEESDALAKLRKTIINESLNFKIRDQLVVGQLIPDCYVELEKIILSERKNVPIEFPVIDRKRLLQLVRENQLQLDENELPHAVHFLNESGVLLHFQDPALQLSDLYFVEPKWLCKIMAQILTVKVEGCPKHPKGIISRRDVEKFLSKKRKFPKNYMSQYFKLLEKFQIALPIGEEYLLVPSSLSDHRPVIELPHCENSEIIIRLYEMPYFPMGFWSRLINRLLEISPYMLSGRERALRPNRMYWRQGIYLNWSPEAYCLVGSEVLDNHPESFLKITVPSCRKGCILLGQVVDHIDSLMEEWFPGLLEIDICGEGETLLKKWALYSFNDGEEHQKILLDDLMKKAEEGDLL

T2: LRRK2 kinase-WD40 domain construct (human, UniProt Q5S007 1876-2527)
T2 construct: also called K-WD40; not shown: N-terminal His-tag (pFastBac)
T2 sequence: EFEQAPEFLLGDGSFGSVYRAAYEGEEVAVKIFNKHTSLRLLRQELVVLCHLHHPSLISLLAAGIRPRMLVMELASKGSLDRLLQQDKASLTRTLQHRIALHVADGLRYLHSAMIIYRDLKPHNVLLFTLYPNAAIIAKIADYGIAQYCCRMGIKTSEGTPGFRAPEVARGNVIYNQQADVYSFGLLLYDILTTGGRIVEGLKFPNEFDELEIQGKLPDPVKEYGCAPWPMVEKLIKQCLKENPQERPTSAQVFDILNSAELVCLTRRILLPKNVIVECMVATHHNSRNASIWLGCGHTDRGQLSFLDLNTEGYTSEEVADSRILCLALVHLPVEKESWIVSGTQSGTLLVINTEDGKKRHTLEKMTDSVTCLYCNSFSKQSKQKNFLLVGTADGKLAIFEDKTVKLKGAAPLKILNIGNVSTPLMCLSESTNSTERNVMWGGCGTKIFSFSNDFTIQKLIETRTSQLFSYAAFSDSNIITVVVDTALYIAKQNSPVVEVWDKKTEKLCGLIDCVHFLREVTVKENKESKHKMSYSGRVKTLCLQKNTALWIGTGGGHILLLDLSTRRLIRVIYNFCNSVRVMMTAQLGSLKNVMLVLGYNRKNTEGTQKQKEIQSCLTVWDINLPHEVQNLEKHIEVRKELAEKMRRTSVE

T3: LRRK2 Roc domain construct (human, UniProt Q5S007 1329-1520)
T3 construct: not shown: N-terminal His6-tag of pET-28a
T3 sequence: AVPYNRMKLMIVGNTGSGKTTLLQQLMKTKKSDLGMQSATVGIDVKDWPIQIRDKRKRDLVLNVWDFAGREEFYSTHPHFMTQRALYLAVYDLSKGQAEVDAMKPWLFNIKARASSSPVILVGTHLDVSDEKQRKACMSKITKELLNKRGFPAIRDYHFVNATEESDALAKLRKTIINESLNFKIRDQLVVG


Legend:
[1] = molecular target: T4, LRRK2 COR-B construct (C-terminal part of the COR domain), His6-MBP tagged (human, UniProt Q5S007 1672-1840); assay: ELISA, antigen coated on the plate, purified Nb detected via its EPEA tag
T4 construct: also called (MBP-)COR-B; not shown: N-terminal His6-MBP-tag of pDEST-566
In short: (§1)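 The RocCOR, Roc, COR-B and kinase-WD40 constructs were coated side by side on one ELISA plate. Binding of each purified nanobody to every coated construct was then detected.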

[2] = molecular target: T1, LRRK2 RocCOR domain construct; assay: as above
In short: as §1

[3] = molecular target: T2, LRRK2 kinase-WD40 domain construct; assay: as above
In short: as §1

[4] = molecular target: T5, Full-length human Leucine-rich repeat kinase 2 (LRRK2), N-terminal Strep/Flag (SF) tagged (human, UniProt Q5S007 1-2527); assay: MST; LRRK2 titrated to m-TAMRA-labelled Nb, in presence of GTPγS instead of GDP; MST in presence of GTPγS instead of GDP
T5 construct: Purified from HEK293T cells in presence of GDP or GTPγS; also called FL LRRK2; FL-LRRK2
Experimental: (§2) Microscale thermophoresis (MST) experiments were performed for determining equilibrium binding affinities (KD) of Nbs binding to FL-LRRK2. Therefore, Nb were site-specifically labelled at their C-terminus with m-TAMRA, using Sortase-mediated peptide exchange. The Nbs were recloned into a pHEN29 vector which is subsequently used to express and purify the Nbs with a C-terminal LPETGG-His₆-EPEA tag. Exchange of the latter peptide with an m-TAMRA-labeled GGGYK peptide (GenicBio, Shanghai, China) was performed using Sortase, and unlabeled Nb and unincorporated peptide were removed using a Ni-NTA and SEC purification step, respectively. […] After incubation at 4° C. for 30 mins, samples were loaded in capillaries and measurements were performed at 25° C. using 50-70% LED power and 80% laser intensity (laser on-time: 30 s, laser off-time: 5 s). All experiments were performed in triplicate.

[5] = molecular target: T5, Full-length human Leucine-rich repeat …; assay: BLI; Nb on LRRK2 trapped on streptavidin sensor via biotinylated Nb40; steady-state fit
Experimental: (§3) To determine the binding affinity (dissociation constant KD) of the ten Nbs for LRRK2, two methods were used in parallel: microscale thermophoresis (MST) and bio-layer interferometry (BLI). For the MST experiment, we site-specifically labeled the ten Nbs with a m-TAM RA fluorophore at its C-terminus, using sortase-mediated coupling, and then titrated increasing amounts of full-length LRRK2 to these Nbs (FIGS. 13A-13E).
(§4) Biolayer interferometry (BLI) measurements were performed using an Octet Red96 (Forte Bio, Inc.) system in a buffer containing 50 mM HEPES pH 8.0, 150 mM NaCl, 10 mM MgCl₂, 5% glycerol, 0.1% BSA, 0.05% Tween, at 25° C. and with shaking speed 1000 rpm. […] The biotinylated Nbs were first loaded on pre-equilibrated SA biosensors at a concentration of 5 μg/mL. This Nb-loaded sensor was then used to trap FL-LRRK2 from a 50 nM LRRK2 solution. […] All experiments were performed in triplicate.

[6] = molecular target: T5, Full-length human Leucine-rich repeat …; assay: cell-based or functional assay
[7] = molecular target: T3, LRRK2 Roc domain construct; assay: ELISA, antigen coated on the plate, purified Nb detected via its EPEA tag
In short: as §1

[8] = molecular target: T5, Full-length human Leucine-rich repeat …; assay: kinase kinetics (PhosphoSens, varied ATP), global fit to mixed inhibition; ATP-bound LRRK2; enzyme kinetics, mixed inhibition fit; ATP-bound LRRK2
Experimental: (§5) Full Michaelis-Menten curves (relative velocity versus [ATP]) in presence of different Nb concentrations were collected at 30° C. in a buffer consisting of 50 mM HEPES pH 7.5, 0.1% Brij-35, 50 mM NaCl, 10 mM MgCl₂ and […], using a fixed concentration of AQT0615 (10 μM) and varying concentrations of ATP. The LRRK2 concentration was chosen such that initial rates (linear fluorescence versus time curves) were obtained, and LRRK2, ATP and the Nbs were preincubated at 4° C. for 30 min prior to starting the reaction by adding the peptide substrate. The Michaelis-Menten curves for the different Nb concentrations were globally fit on a mixed-inhibition model using GraphPad Prism, according to the equation: […]

[9] = molecular target: T5, Full-length human Leucine-rich repeat …; assay: kinase kinetics (PhosphoSens, varied ATP), global fit to mixed inhibition; affinity for apo-LRRK2; enzyme kinetics, mixed inhibition fit; apo (non-ATP-bound) LRRK2
Experimental: as §5

[10] = molecular target: T5, Full-length human Leucine-rich repeat …; assay: BLI; Nb on LRRK2 trapped on streptavidin sensor via biotinylated Nb40; steady-state fit; BLI; LRRK2 trapped on the sensor via biotinylated Nb40
Experimental: as §3, §4

[11] = molecular target: T5, Full-length human Leucine-rich repeat …; assay: kinase kinetics (PhosphoSens, varied ATP), global fit to mixed inhibition; affinity for apo-LRRK2; enzyme kinetics, mixed inhibition fit; apo-LRRK2
Experimental: as §5

[12] = molecular target: T5, Full-length human Leucine-rich repeat …; assay: MST; LRRK2 titrated to m-TAMRA-labelled Nb, 500 µM GDP
Experimental: as §2

[13] = molecular target: T5, Full-length human Leucine-rich repeat …; assay: ELISA titration on coated LRRK2, Nb detected via its C-terminal EPEA tag, A405 read at 0.5 h
Experimental: (§6) LRRK2 was coated in the wells of the ELISA plate and the ELISA signal for a dilution series of the respective Nbs (detected via their C-terminal EPEA-tag) is plotted in function of the Nb concentration. […] A “no antigen control”, where no LRRK2 was coated on the bottom of the well, is also included.
(§7) Detection of Nb binding was performed using the C-terminal EPEA tag of the Nbs as described before, resulting in a dose response titration curve reflecting an apparent affinity of the Nbs. […] A “no antigen control”, where no LRRK2 was coated on the bottom of the well, was also included.

[14] = molecular target: T5, Full-length human Leucine-rich repeat …; assay: ELISA titration on coated LRRK2, Nb detected via its C-terminal EPEA tag, A405 read at 10 h
Experimental: as §6, §7

[15] = molecular target: T5, Full-length human Leucine-rich repeat …; assay: BLI; Nb on LRRK2 trapped on streptavidin sensor via biotinylated Nb42; steady-state fit
Experimental: as §3, §4

Row | Binder | binding result [1] | binding result [2] | binding result [3] | Kd [4] [nM] | Kd [5] [nM] | IC50 of in vitro LRRK2 kinase activity (AQT0615 peptide, PhosphoSens, 1 mM ATP) [6] [nM] | binding result [7] | Ki [8] [nM] | Ki [9] [nM] | Kd [10] [nM] | Ki [11] [nM] | Kd [12] [nM] | EC50 (read off the curve) [13] [nM] | EC50 (read off the curve) [14] [nM] | Kd [15] [nM]
1 | Nb23 (CA13612) (VHH) VHH: QVQLVESGGGLVQAGGSLRLSCAASGRTFSRYTMGWFRQAPGKDREFVARITTSGAVTTYADSAKGRFTISRDNAKNTVYLQMNTLKPEDTAVYYCAAGQGQLSSQSRFVDYWGQGTQVTVSS | no binding (tested: not given) | no binding (tested: not given) | – | – | – | ~65000 | no binding (tested: not given) | 66000 | 9000 | 65 | – | – | – | – | –
2 | Nb6 (CA12618) (VHH) VHH: QVQLVESGGGLVQAGGSLRLSCAASGSIFSPTAMGWYRQAPGKERELVAGITSGGYTNYRNFARGRFTISRDNAKKTVYLQMNSLNPEDTAVYYCNTLTISWSWGQGTQVTVSS | – | – | no binding (tested: not given) | – | 7 | 14000 | no binding (tested: not given) | 8000 | – | – | 5000 | 83 | ~5 | – | –
3 | Nb1 (CA12610) (VHH) VHH: QVQLVESGGGLVQAGGSLRLSCVASGRIFSGNAMGWYRQAPGRQRELVAGITNGGYTNYRQFVKGRFTISRDNAKRTVYLQMNSLKPEDTAVYYCNALDREARQVDYWGQGTQVTVSS | – | – | no binding (tested: not given) | – | 114 | 8000 | no binding (tested: not given) | 30000 | – | – | 16000 | 91 | – | ~10 | –

The next lines start with the values.

Row | binding result [1] | binding result [2] | binding result [3] | Kd [4] [nM] | Kd [5] [nM] | IC50 of in vitro LRRK2 kinase activity (AQT0615 peptide, PhosphoSens, 1 mM ATP) [6] [nM] | binding result [7] | Ki [8] [nM] | Ki [9] [nM] | Kd [10] [nM] | Ki [11] [nM] | Kd [12] [nM] | EC50 (read off the curve) [13] [nM] | EC50 (read off the curve) [14] [nM] | Kd [15] [nM] | Binder
4 | no binding (tested: not given) | no binding (tested: not given) | no binding (tested: not given) | 94 | 82 | – | – | – | – | – | – | – | – | – | – | Nb42 (CA14259) (VHH, biotinylated form used as trapping agent in BLI of Nb40) VHH: QVQLVESGGGLVQAGGSLRLSCAASGDVNYAVGWFRQAPRKEREFVAAINWRGDNTDYTDSVKGRFTISRDNAKNTVYLQMNSLKPEDTAVYYCAAKSAPYWYSDIAPDYWGQGTQVTVSS
5 | no binding (tested: not given) | no binding (tested: not given) | – | – | – | – | no binding (tested: not given) | – | – | – | – | 26 | – | – | 41 | Nb40 (CA14135) (VHH, biotinylated form used as trapping agent in BLI) VHH: QVQLVESGGGLVQPGGSLRLSCVASGTIYAINRMGWYRQAPGKQRELVALITLGGGTNYGDSVKGRFTISRDNAKNTGYLQMNSLKPEDTAVYYCKVESSGYTDVFWGQGTQVTVSS
